From patent publication US20240092867A1 (UNIVERSITY OF CHICAGO, published 2024)

Key:
[1] = biological target: T1, recombinant human vWF A2 domain (human, UniProt P04275 1498-1665); test: ELISA, domain coated 50 nM
T1 construct: domain: A2
Method: (§1) ELISA was performed as previously reported1. […] After blocking with 2% BSA solution containing PBS-T, 1 μg/mL of recombinant human VEGF-A121 (PeproTech), recombinant human VEGF-A145 (R & D Systems), or recombinant human VEGF-A165 (PeproTech) was added. Bound VEGF-A was detected with 1 μg/mL of mouse anti-human VEGF-A antibody (clone: 26503, R & D systems). After 60 min of incubation, horseradish peroxidase (HRP) conjugated goat anti-mouse antibody (1:2000 dilution, Dako) was added and incubated for another 60 min. Color development and the absorbance measurement were done as described above.

[2] = biological target: T2, recombinant human vWF A3 domain (human, UniProt P04275 1683-1874); test: ELISA, domain coated 50 nM
T2 construct: domain: A3
Method: as §1

[3] = biological target: T3, human plasma-derived vWF (human, UniProt P04275 764-2813); test: SPR, vWF immobilised, GF flowed, 1:1 Langmuir fit
T3 construct: mature; also called plasma-derived purified vWF; von Willebrand factor
Method: A450 nm represents absorbance at 450 nm. Signals from VEGF-A121 served as a baseline, and bovine serum albumin (BSA) served as a negative control (n=4, mean±SD). […] Experimental curves were fitted with (C) 1:1 Langmuir fit model and (D) heterogeneous ligand-parallel reactions binding.
SPR assays were performed as described previously2. In brief, measurements were made with a Biacore X100 SPR system or Biacore 3000 SPR system (GE Healthcare). […] Recombinant human VEGF-A165, VEGF-A121, or PDGF-BB was flowed at increasing concentrations in the running buffer at 30 μL/min. The sensor chip was regenerated with glycine at pH 2 for every cycle.

[4] = biological target: T4, recombinant laminin α3 2928-3150 protein (linker domain and LG4 domain) (human, UniProt Q16787 2928-3150); test: SPR; α3 2928-3150 recombinant protein immobilised (~1000 RU), VEGF-A165 flowed at 0.325-10.4 nM; Langmuir fit [panel D]
T4 construct: range 2928-3150; Made in HEK-293F cells; also called laminin alpha 3 LG domain recombinant protein
T4 sequence: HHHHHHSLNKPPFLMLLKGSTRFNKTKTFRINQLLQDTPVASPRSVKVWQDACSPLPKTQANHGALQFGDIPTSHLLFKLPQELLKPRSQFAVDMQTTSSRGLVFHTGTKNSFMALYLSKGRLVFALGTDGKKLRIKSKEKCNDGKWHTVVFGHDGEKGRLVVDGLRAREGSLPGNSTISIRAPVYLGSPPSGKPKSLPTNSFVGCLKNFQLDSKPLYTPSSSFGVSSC
Description: Statistical analyses were done using the Mann-Whitney U test by comparing the signals obtained from the laminin domain- and the BSA-coated wells. *p<0.05, **p<0.01. […] A SPR chip was functionalized with the laminin α3₂₉₂₈₋₃₁₅₀ recombinant protein (˜1000 RU), and each GF was flowed over the chip at indicated concentrations. Curves represent the specific responses (in RU) to laminin. Experimental curves were fitted with Langmuir binding kinetics.
Because the GFs that bound to laminins have also been previously reported to bind to other ECM glycoproteins through HBDs, it was hypothesized that HBDs of laminins might be responsible for the interactions between GFs and laminin. To address this hypothesis, ELISA assays were repeated for VEGF-A165, PlGF-2 or FGF-2 in the presence of heparin added in excess (10 μM). […] To further confirm this, the inventors tested direct GF binding to the LG domains from human laminin α3, α4 and α5, within which HBDs of laminin were localized.
(§2) SPR analysis was performed as described previously². In brief, measurements were made with a Biacore 3000 SPR system (GE Healthcare). […] VEGF-A165, PDGF-BB, or PlGF-2 was flowed at increasing concentrations in the running buffer at 20 μL/min. The sensor chip was regenerated with 50 mM NaOH for every cycle.

[5] = biological target: T5, laminin-521 (human, UniProt O15230 36-3695; P55268 33-1798; P11047 34-1609); test: SPR; laminin-521 immobilised on the chip (~2000 RU), VEGF-A165 flowed at 10-100 nM; Langmuir fit
T5 construct: Full-length recombinant human laminin isoform (BioLamina); chains read from the isoform name
Method: A450 nm represents absorbance at 450 nm. BSA-coated wells served as negative controls (n=4, mean±SEM). Signals greater than 0.1 (grey box) are considered to be significant. […] Experimental curves were fitted with Langmuir binding kinetics.
The obtained binding curves were fitted with Langmuir binding kinetics to calculate specific dissociation constants (KD) (FIG. 1B).
as §2, with “cycle. Specific bindings of GFs to laminin were calculated by comparison to a non-functionalized channel used as a reference. Experimental results were fitted with Langmuir binding kinetics using BIAevaluation software (GE Healthcare).” for “cycle.”

B1: vascular endothelial growth factor (VEGF)-A165 (ligand, human, UniProt P15692-4 27-191, looked up)
chain: APMAEGGGQNHHEVVKFMDVYQRSYCHPIETLVDIFQEYPDEIEYIFKPSCVPLMRCGGCCNDEGLECVPTEESNITMQIMRIKPHQGQHIGEMSFLQHNKCECRPKKDRARQENPCGPCSERRKHLFVQDPQTCKCSCKNTDSRCKARQLELNERTCRCDKPRR
notes: mature; Purchased in mature form, not glycosylated
Question: Does B1 bind [1]?
Answer: Result: no binding (tested: 1 µg/mL)

Question: Does B1 bind [2]?
Answer: Result: no binding (tested: 1 µg/mL)

Question: What about the Kd [3] of the same binder?
Answer: Its Kd is 27 nM.

Question: And the Kd [4]?
Answer: The Kd was 1.47 nM.

Question: What about the koff [4] of the same binder?
Answer: The koff was 0.00663 s⁻¹.

Question: And the kon [4]?
Answer: The kon was 4.52e+06 M⁻¹ s⁻¹.

Question: And the Kd [5]?
Answer: The Kd was 5.78 nM.

Question: What about the koff [5] of the same binder?
Answer: Its koff is 0.00324 s⁻¹.

Question: And the kon [5]?
Answer: Its kon is 561000 M⁻¹ s⁻¹.
